pEC50, pIC50: −log10 of the molar value. Read-outs that look alike come from different tables or passages of the source.
Tests used:
[1] = SEC-HPLC aggregation analysis; type: physicochemical
Method: The antibody aggregation was analyzed by size-exclusion, high-performance liquid chromatography (SEC-HPLC) using an Agilent 1100. The mAb was diluted to 1 mg/mL in DPBS. The antibody (20 μL) was injected onto a TSKgel® SuperSW guard column (4.6 mm×3.5 cm, 4 μm pore size, Tosoh Bioscience), followed by a TSKgel® SuperSW3000 column (4.6 mm×30 cm, 4 μm pore size), eluted from the column with 0.1 M sodium phosphate containing 0.15 M NaCl and 0.05% NaN3, at pH 7.4, at a flow rate of 0.3 mL/min for 20 min. All data were analyzed using Agilent ChemStation software. Percent aggregation was calculated as [PAaggregate/PAtotal]*100, where PA=integrated peak area.
ADC was diluted to 1 mg/mL in DPBS. ADC (10 μL) was then injected onto an Advanced SEC 300A guard column (4.6 mm×3.5 cm, 2.7 μm pore size, Agilent), followed by a AdvancedBio 300A column (4.6 mm×30 cm, 2.7 μm pore size). ADC was eluted from the column with 0.1 M sodium phosphate containing 0.15 M NaCl and 5% IPA, pH 7.4 at a flow rate of 0.25 mL/min for 28 min. All data were analyzed using Agilent ChemStation software. Percent aggregation was calculated as [PAaggregate/PAtotal]*100, where PA=integrated peak area.

[2] = biological target: Recombinant human folate receptor alpha (Homo sapiens, UniProt P15328); experiment: ELISA, folate receptor alpha; type: binding; conditions: MORAb-003 and its ADCs
Chain of Recombinant human folate receptor alpha (P15328 25-234): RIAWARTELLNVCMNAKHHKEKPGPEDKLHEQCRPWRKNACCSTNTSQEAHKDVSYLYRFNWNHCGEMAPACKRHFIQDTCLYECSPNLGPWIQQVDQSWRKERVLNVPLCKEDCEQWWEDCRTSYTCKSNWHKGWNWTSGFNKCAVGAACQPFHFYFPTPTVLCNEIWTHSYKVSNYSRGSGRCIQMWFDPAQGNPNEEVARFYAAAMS
Method: Coating solution was discarded and the plates were washed three times using 1×PBS with 0.05% Tween-20 (PBST) buffer. Plates were blocked in 300 μL blocking buffer (1% BSA in PBST) at room temperature for 2 hours on an orbital shaker. […] Blocking buffer was discarded and 100 μL/well of diluted antibody was added to the plates. Plates were incubated at room temperature for 2 hours on an orbital shaker. Antibody solution was discarded and plates were washed three times using PBST. 100 μL/well of goat-anti-human IgG (H+L)-HRP (1:10,000 dilution in blocking buffer) solution was added to the plates, and plates were incubated at room temperature for 1 hour on an orbital shaker. Secondary antibody solution was discarded and plates were washed three times using PBST. 100 μL/well of QuantaBlu fluorogenic peroxidase substrate working solution (Thermo, Cat No. 15169) was added to the plates, and plates were incubated at room temperature for 30 min. Fluorescence was read at excitation 325 nm/emission 420 nm using a SpectraMax M5 (Molecular Devices). Data was analyzed using SoftMaxPro 5.4.2 software with 4-parameter fitting.

[3] = test system: IGROV1 cells; experiment: Crystal Violet cytotoxicity assay (Example 4), IGROV1; type: cell-based, human; conditions: mean of replicate experiments, read-out: Cytotoxicity IC50 (nM), IGROV1 (FR^hi, MSLN^neg)
Method: (§1) Test reagents were serial diluted 1:3 in 2 mL deep-well dilution plates, starting at 200 nM (10 dilutions total). […] Medium was then discarded. […] Plates were read at 570 nm. Data was analyzed using GraphPad Prism 6.

[4] = test system: NCI-H2110 cells; experiment: Crystal Violet cytotoxicity assay (Example 4), NCI-H2110; type: cell-based, human; conditions: mean of replicate experiments, read-out: Cytotoxicity IC50 (nM), NCI-H2110 (FR^med, MSLN^med)
Method: as §1

[5] = test system: A431 cells; experiment: Crystal Violet cytotoxicity assay (Example 4), A431 (parental); type: cell-based, human; conditions: mean of replicate experiments, read-out: Cytotoxicity IC50 (nM), A431 (FR^neg, MSLN^neg)
Method: Test reagents were serial diluted 1:3 in 2 mL deep-well dilution plates, starting at 200 nM (10 dilutions total). […] Medium was then discarded. […] Plates were read at 570 nm. Data was analyzed using GraphPad Prism 6. […]
MAL-PEG2-Val-Cit-PAB-eribulin (ER-001159569) was conjugated to eight different anti-human mesothelin antibodies (Table 1). Binding affinities of the parental antibodies were determined by BIAcore analysis, as described above in section 1.6.1. Aggregation levels for all anti-human mesothelin ADCs were determined by SEC-HPLC and the DAR was analyzed using HIC-HPLC. In vitro potency was evaluated using a Crystal Violet cell-based cytotoxicity assay in A3 (A431 stabily transfected with human mesothelin (MSLN), MSLN^hi), OVCAR3 (human ovarian, MSLN^hi), HEC-251 (human endometroid, MSLN^med), H226 (human lung squamous cell mesothelioma, MSLN^lo), and A431 parental (MSLN^neg) cells.

[6] = test system: IGROV1 cells; experiment: Crystal Violet cytotoxicity assay (Examples 1 and 2), IGROV1
Method: (§2) Typically, test reagents were serial diluted 1:4 in 2 mL deep-well dilution plates, starting at 1 μM (10 dilutions total). 100 μL of diluted samples were added to the cell plates (starting concentration of test samples at 500 nM). […] Medium was discarded, plates were washed once with 200 μL DPBS, stained with 50 μL of 0.2% Crystal Violet solution at room temperature for 15 min, and then washed extensively with tap water. Plates were air-dried, and Crystal Violet was dissolved with 200 μL of 1% SDS solution. Plates were read at 570 nm. Data was analyzed using GraphPad Prism 6. Assays were performed using a seeding density of 1,000 cells per well and compound exposure was for a total of 5 days. When shorter-term exposure was desired, medium containing cytotoxic agents was removed after 4 hours and replaced with fresh growth medium prior to 5-day incubation. For OVCAR3, CaOV3, and NCI-H2110, cells were seeded at 3,000 cells/well and incubated for 5 days with ADC.
(§3) In vitro potency of prepared ADCs was assessed using a Crystal Violet assay as detailed in section 1.4.1.
(§4) SJSA-1 cells are a human osteosarcoma tumor cell line that are negative for folate receptor alpha.
(§5) Typically, test reagents were serially-diluted 1:4 in 2 mL deep-well dilution plates, starting at 1 μM (10 dilutions total). […] Plates were read at 570 nm. Data was analyzed using GraphPad Prism 6.

[7] = test system: SJSA-1 cells; experiment: Crystal Violet cytotoxicity assay (Examples 1 and 2), SJSA-1
Method: as §2, §3, §4
(§6) Typically, test reagents were serially-diluted 1:4 in 2 mL deep-well dilution plates, starting at 1 μM (10 dilutions total). 100 μL of diluted samples were added to the cell plates (starting concentration of test samples at 100 nM). […] Medium was discarded, plates were washed once with 200 μL DPBS, stained with 50 μL of 0.2% Crystal Violet solution at room temperature for 15 min, and then washed extensively with tap water. Plates were air-dried, and Crystal Violet was dissolved with 200 μL of 1% SDS solution. Plates were read at 570 nm. Data was analyzed using GraphPad Prism 6.

[8] = test system: NCI-H2110 cells; conditions: read-out: IC50 on NCI-H2110; Example 1
Method: as §2, §4, §6

[9] = test system: OVCAR3 cells; experiment: Crystal Violet cytotoxicity assay (Examples 1 and 2), OVCAR3; conditions: read-out: Cytotoxicity (IC50) OVCAR3; OVCAR3 cells; mean of replicate experiments, where performed
Method: as §2, §4
as §5, with “total). 100 μL of diluted samples were added to the cell plates (starting concentration of test samples at 100 nM).” for “total).”

[10] = test system: IGROV1 cells; experiment: Serum stability assay, cytotoxicity readout on IGROV1
Method: (§7) Following incubation, samples were frozen and stored at −20° C. until evaluation in cytotoxicity and binding assays. For cytotoxicity analyses, samples were evaluated on IGROV1 and SJSA-1 cells, as detailed in section 1.4.1. For binding assessment, samples were evaluated using a solution-based MSD ECL assay.
(§8) ER-001161319 is maytansine-based ADC comprising the same cleavable linker as VCP-eribulin, maleimido-PEG2-Val-Cit-pAB. PBS and serum controls were included to correct for any serum effects on assay performance.

[11] = test system: SJSA-1 cells; experiment: Serum stability assay, cytotoxicity readout on SJSA-1
Method: as §7, §8

[12] = read-out: Cell-based cytotoxicity assay, EC50, Human Serum, 0 hr-PBS
[13] = read-out: Cell-based cytotoxicity assay, EC50, Human Serum, 0 hr-Serum
[14] = read-out: Cell-based cytotoxicity assay, EC50, Human Serum, 4 hr at 37° C.
[15] = read-out: Cell-based cytotoxicity assay, EC50, Human Serum, 24 hr at 37° C.
[16] = read-out: Cell-based cytotoxicity assay, EC50, Mouse Serum, 0 hr-Serum
[17] = read-out: Cell-based cytotoxicity assay, EC50, Mouse Serum, 4 hr at 37° C.
[18] = read-out: Cell-based cytotoxicity assay, EC50, Mouse Serum, 24 hr at 37° C.
[19] = read-out: Cell-based cytotoxicity assay, EC50, Mouse Serum, 48 hr at 37° C.
[20] = read-out: Cell-based cytotoxicity assay, EC50, PBS, 0 hr-PBS
[21] = read-out: Cell-based cytotoxicity assay, EC50, PBS, 0 hr-Serum
[22] = read-out: Cell-based cytotoxicity assay, EC50, PBS, 4 hr at 37° C.
[23] = read-out: Cell-based cytotoxicity assay, EC50, PBS, 24 hr at 37° C.
[24] = read-out: Cell-based cytotoxicity assay, EC50, PBS, 48 hr at 37° C.

Substance: MORAb003-PEG4-eribulin
- SEC-HPLC Analysis % Frag. [1]: 0%
- SEC-HPLC Analysis % Monomer [1]: 89.76%
- Antigen Binding ELISA, EC50 [2]: 0.00931 µg/mL
- IC50 [3]: 0.277 nM
- IC50 [4]: 21.6 nM
- IC50 [5]: > 100 nM

Substance: MORAb003-DBCO-PEG4 VCP eribulin
- Antigen Binding ELISA, EC50 [2]: 0.016 µg/mL
- IC50 [3]: 0.038 nM
- IC50 [4]: 4.28 nM
- IC50 [5]: > 100 nM

Substance: MORAb003-PEG2-eribulin
- Antigen Binding ELISA, EC50 [2]: 0.00696 µg/mL
- IC50 [3]: 0.33 nM
- IC50 [4]: 38.3 nM
- IC50 [5]: > 100 nM

Substance: MORAb003-DBCO-PEG4 eribulin
- Antigen Binding ELISA, EC50 [2]: 0.0133 µg/mL
- IC50 [3]: 1.32 nM
- IC50 [4]: 46.3 nM
- IC50 [5]: > 100 nM

Substance: MORAb-003-PEG-pAB-duostatin 3 [M-0285]
- cytotoxicity and specificity on IGROV1 cell line, in words ([6]; Example 1 screening, IGROV1 versus SJSA-1): specific cytotoxicity
- pIC50 ([6]; read-out: Cytotoxicity (IC50) IGROV1, IGROV1 cells, mean of replicate experiments, where performed): 9.52
- killing of FR-negative SJSA-1 cells (off-target), in words ([7]; Example 1 screening): little cytotoxicity
- pIC50 ([7]; read-out: Cytotoxicity (IC50) SJSA-1, SJSA-1 cells, mean of replicate experiments, where performed): < 7.00
- pIC50 [8]: 7.85
- pIC50 [9]: 8.06
- pEC50 [10, 12]: 10.05
- pEC50 [10, 13]: 10.11
- pEC50 [10, 14]: 10.12
- pEC50 [10, 15]: 10.13
- pEC50 [10, 16]: 10.31
- pEC50 [10, 17]: 10.31
- pEC50 [10, 18]: 10.36
- pEC50 [10, 19]: 10.29
- pEC50 [10, 20]: 10.13
- pEC50 [10, 21]: 10.20
- pEC50 [10, 22]: 10.19
- pEC50 [10, 23]: 10.23
- pEC50 [10, 24]: 10.37
- pEC50 [11, 12]: < 8.00
- pEC50 [11, 13]: < 8.00
- pEC50 [11, 14]: < 8.00
- pEC50 [11, 15]: < 8.00
- pEC50 ([11]; read-out: Cell-based cytotoxicity assay, EC50, Human Serum, 48 hr at 37° C.): < 8.00
- pEC50 ([11]; read-out: Cell-based cytotoxicity assay, EC50, Mouse Serum, 0 hr-PBS): < 8.00
- pEC50 [11, 16]: < 8.00
- pEC50 [11, 17]: < 8.00
- pEC50 [11, 18]: < 8.00
- pEC50 [11, 19]: < 8.00
- pEC50 [11, 20]: < 8.00
- pEC50 [11, 21]: < 8.00
- pEC50 [11, 22]: < 8.00
- pEC50 [11, 23]: < 8.00
- pEC50 [11, 24]: < 8.00

Substance: MORAb003-DBCO-PEG2 eribulin
- Antigen Binding ELISA, EC50 [2]: 0.0191 µg/mL
- IC50 [3]: 4.25 nM
- IC50 [4]: 38.1 nM
- IC50 [5]: > 100 nM
